Measured values: PMC9741652 (2022)
Read-outs that look alike come from different tables or passages of the source.

Experiments:
Assay in all cases: ITC
[1] = target: T1, ZER1 (residues 469–766) (human, UniProt Q7Z7L7 469-766)
T1 chain: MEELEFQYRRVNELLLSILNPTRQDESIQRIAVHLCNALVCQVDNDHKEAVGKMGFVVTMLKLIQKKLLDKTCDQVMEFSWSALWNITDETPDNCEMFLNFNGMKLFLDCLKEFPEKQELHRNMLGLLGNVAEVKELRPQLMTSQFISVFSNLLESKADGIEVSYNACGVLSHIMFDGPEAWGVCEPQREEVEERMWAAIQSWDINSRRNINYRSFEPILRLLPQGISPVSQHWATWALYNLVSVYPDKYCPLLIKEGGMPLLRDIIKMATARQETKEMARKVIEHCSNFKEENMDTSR

[2] = target: ZYG11B (residues 490–728) (UniProt Q9C0D3 490-728)
ZYG11B (residues 490–728), sequence (Q9C0D3 other isoform, or with tags, fused parts or gaps): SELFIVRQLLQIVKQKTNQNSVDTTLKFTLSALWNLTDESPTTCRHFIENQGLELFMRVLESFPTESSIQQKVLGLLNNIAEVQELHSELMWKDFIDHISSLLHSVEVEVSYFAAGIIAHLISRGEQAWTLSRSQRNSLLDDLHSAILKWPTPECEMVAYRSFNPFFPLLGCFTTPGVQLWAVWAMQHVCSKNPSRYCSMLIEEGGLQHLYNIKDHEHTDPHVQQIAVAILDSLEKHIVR

[3] = target: T1, ZER1 (residues 469–766)
[4] = target: T2, ZER1 (residues 469–766) N553A (human, UniProt Q7Z7L7 469-766, N553A)
T2 sequence (Q7Z7L7 other isoform, or with tags, fused parts or gaps N553A | N553A): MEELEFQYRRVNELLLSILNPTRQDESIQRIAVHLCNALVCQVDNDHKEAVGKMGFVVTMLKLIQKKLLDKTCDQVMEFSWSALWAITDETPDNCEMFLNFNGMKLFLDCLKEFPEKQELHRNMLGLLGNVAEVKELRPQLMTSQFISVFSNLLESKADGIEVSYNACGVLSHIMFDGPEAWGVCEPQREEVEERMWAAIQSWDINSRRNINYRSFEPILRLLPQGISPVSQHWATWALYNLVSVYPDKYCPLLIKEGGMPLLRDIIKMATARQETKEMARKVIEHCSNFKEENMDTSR

[5] = target: ZYG11B (residues 490–728) N523A (UniProt Q9C0D3 490-728, N523A)
ZYG11B (residues 490–728) N523A, sequence (Q9C0D3 other isoform, or with tags, fused parts or gaps N523A | N523A): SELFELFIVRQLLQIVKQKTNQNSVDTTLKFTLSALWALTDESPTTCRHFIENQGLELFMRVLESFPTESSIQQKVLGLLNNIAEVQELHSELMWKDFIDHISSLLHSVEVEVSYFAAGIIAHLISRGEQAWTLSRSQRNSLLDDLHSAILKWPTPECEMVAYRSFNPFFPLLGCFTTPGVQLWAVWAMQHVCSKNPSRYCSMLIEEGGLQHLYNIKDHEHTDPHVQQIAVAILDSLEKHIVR

[6] = target: T2, ZER1 (residues 469–766) N553A; remark: listed apart in the source

B1: CFLHVGQD peptide (peptide)
peptide: CFLHVGQD
modifications: Printed N-terminus MEEL is read as start Met plus native residues from 469 (by analogy with SELF in ZYG11B); C-terminal His tag of pNIC-CH left out
Kd [1]: 3.9 µM

B2: CFLHVGQD peptide (peptide)
peptide: CFLHVGQD
modifications: Printed N-terminus SELF is read as vector Ser plus native E490-L491-F492 (numbering from the 7XYW entity, 485-728 starting AQLGTELF); His-SUMO tag left out
Kd [2]: 3 µM

B3: GFLHVGQD peptide (peptide)
peptide: GFLHVGQD
modifications: Printed N-terminus SELF is read as vector Ser plus native E490-L491-F492 (numbering from the 7XYW entity, 485-728 starting AQLGTELF); His-SUMO tag left out
Kd [2]: 2.5 µM

B4: free H2A peptide (sequence: SGRGKQGGKA) (peptide)
peptide: SGRGKQGGKA
modifications: Printed N-terminus MEEL is read as start Met plus native residues from 469 (by analogy with SELF in ZYG11B); C-terminal His tag of pNIC-CH left out
Kd [3]: 3.8 µM

B5: AFLHVGQD peptide (peptide)
peptide: AFLHVGQD
modifications: N-terminus MEEL read as start Met plus native residues from 469; His tag left out
Kd [4]: 7.6 µM

B6: SFLHVGQD peptide (peptide)
peptide: SFLHVGQD
modifications: Printed N-terminus MEEL is read as start Met plus native residues from 469 (by analogy with SELF in ZYG11B); C-terminal His tag of pNIC-CH left out
Kd [1]: 1.3 µM

B7: AFLHVGQD peptide (peptide)
peptide: AFLHVGQD
modifications: Printed N-terminus SELF is read as vector Ser plus native E490-L491-F492 (numbering from the 7XYW entity, 485-728 starting AQLGTELF); His-SUMO tag left out
Kd [2]: 7.1 µM

B8: SFLHVGQD peptide (peptide)
peptide: SFLHVGQD
modifications: Printed N-terminus SELF is read as vector Ser plus native E490-L491-F492 (numbering from the 7XYW entity, 485-728 starting AQLGTELF); His-SUMO tag left out
Kd [2]: 6.8 µM

CFLHVGQD
Kd [5]: 2.9 µM

B9: TFLHVGQD peptide (peptide)
peptide: TFLHVGQD
modifications: Printed N-terminus MEEL is read as start Met plus native residues from 469 (by analogy with SELF in ZYG11B); C-terminal His tag of pNIC-CH left out
Kd [1]: 3.1 µM

AFLHVGQD
Kd [5]: > 50 µM

B10: AFLHVGQD peptide (peptide)
peptide: AFLHVGQD
modifications: Printed N-terminus MEEL is read as start Met plus native residues from 469 (by analogy with SELF in ZYG11B); C-terminal His tag of pNIC-CH left out
Kd [1]: 1.6 µM

B11: GFLHVGQD peptide (peptide)
peptide: GFLHVGQD
modifications: Printed N-terminus MEEL is read as start Met plus native residues from 469 (by analogy with SELF in ZYG11B); C-terminal His tag of pNIC-CH left out
Kd [1]: 4.2 µM

SFLHVGQD
Kd [5]: 4.9 µM

B12: TFLHVGQD peptide (peptide)
peptide: TFLHVGQD
modifications: N-terminus MEEL read as start Met plus native residues from 469; His tag left out
Kd [4]: 7.9 µM

B13: SFLHVGQD peptide (peptide)
peptide: SFLHVGQD
modifications: N-terminus MEEL read as start Met plus native residues from 469; His tag left out
Kd [6]: 7.1 µM
